Measured values taken from US20110257076A1 (INDIANA UNIVERSITY RESEARCH AND TECHNOLOGY, published 2011).
Ends that are not written are not given here.

Columns and labels:
[1] = biological target: T1, human IGF-1 receptor (human, UniProt P08069 31-1367); assay: cell-based or functional assay; design: EC50, total phosphorylation, Insulin Receptor (Mar. 31, 2008): unit not given beside the values
[2] = biological target: T2, human insulin receptor (human, UniProt P06213 28-1382); assay: cell-based or functional assay; design: EC50, total phosphorylation, Insulin Receptor (Mar. 31, 2008): unit not given beside the values
[3] = biological target: T2, human insulin receptor; assay: SPA competition vs [125I]-insulin, membranes with human insulin receptor (Example 3); May 22, 2007
Protocol: (§1) Non-specifically bound (NSB) radioactivity was measured in the wells with a four-fold concentration excess of “cold” native ligand than the highest concentration in test samples. Total bound radioactivity was detected in the wells with no competitor. Percent specific binding was calculated as following: % Specific Binding=(Bound-NSB/Total bound-NSB)×100. IC50 values were determined by using Origin software (OriginLab, Northampton, Mass.).

[4] = biological target: T1, human IGF-1 receptor; assay: SPA competition vs [125I]-IGF-1, membranes with human IGF-1 receptor (Example 3); Jun. 4, 2007
Protocol: as §1

[5] = biological target: T1, human IGF-1 receptor; assay: SPA competition vs [125I]-IGF-1, membranes with human IGF-1 receptor (Example 3); Sep. 18, 2007
Protocol: as §1

[6] = biological target: T2, human insulin receptor; assay: SPA competition vs [125I]-insulin, membranes with human insulin receptor (Example 3); May 29, 2007
Protocol: as §1

[7] = biological target: T2, human insulin receptor; assay: SPA competition vs [125I]-insulin, membranes with human insulin receptor (Example 3); Nov. 9, 2007
Protocol: as §1

[8] = biological target: T2, human insulin receptor; assay: SPA competition vs [125I]-insulin, membranes with human insulin receptor (Example 3); Dec. 4, 2007
Protocol: as §1

[9] = biological target: T2, human insulin receptor; assay: SPA competition vs [125I]-insulin, membranes with human insulin receptor (Example 3); Jun. 5, 2008
Protocol: as §1

[10] = biological target: T2, human insulin receptor; assay: SPA competition vs [125I]-insulin, membranes with human insulin receptor (Example 3); May 18, 2007
Protocol: as §1

B1: IGF-1 A:B(E10Y16L17) (ligand)
chain 1: GIVDECCFRSCDLRRLEMYCA-NH2
chain 2: GPETLCGAELVDALYLVCGDRGFYFNKPT-NH2
modifications: disulfide (positions not given here); not fully specified (bridges)
Q: Which results are given for B1?
A: % IGF, total phosphorylation, IGF-1 Receptor [1]: 13%; % Insulin, total phosphorylation, Insulin Receptor [2]: 49.2%; EC50, total phosphorylation, Insulin Receptor (Mar. 31, 2008) [2]: 2.57; % insulin (in test) [3]: 58.7%; % native insulin activity (0.6 nM) [3]: 90.9%; % IGF-1 (in test) [4]: 6.8%; % native IGF-1 activity (0.55 nM) [4]: 7%; % IGF-1 (in test) [5]: 5%; % native IGF-1 activity (0.55 nM) [5]: 4.5%; % native insulin activity (0.6 nM) [6]: 118%

B2: IGF-1 A:B(E10 Y16L17)-E31E32 B-COOH (ligand)
chain 1: GIVDECCFRSCDLRRLEMYCA-NH2
chain 2: GPETLCGAELVDALYLVCGDRGFYFNKPTEE-OH
modifications: disulfide (positions not given here); not fully specified (bridges)
Q: Which “EC50, total phosphorylation, Insulin Receptor (Mar. 31, 2008)” value [2] does the source give for B2 here?
A: 7

B3: IGF-1 A:B (H5D10Y16L17) DPI (ligand)
chain 1: GIVDECCFRSCDLRRLEMYCA-NH2
chain 2: GPEHLCGADLVDALYLVCGDRGFY-NH2
modifications: disulfide (positions not given here); not fully specified (bridges)
Q: With B3 as the binder, how does the “% IGF, total phosphorylation, IGF-1 Receptor” value (“% IGF, total phosphorylation” for short) [1] read?
A: 7.1%

B4: IGF-1 A (H8 A9 N21):B(H5D10Y16L17 A22) DPI A-COOH (ligand)
chain 1: GIVDECCHASCDLRRLEMYCN-OH
chain 2: GPEHLCGADLVDALYLVCGDAGFY-NH2
modifications: disulfide (positions not given here); not fully specified (bridges)
Q: Which “% IGF, total phosphorylation” value [1] does the source give for B4 here?
A: 7.7%

B5: IGF-1 A (H8 A9 N21):B(H5D10Y16L17) DPI A-COOH (ligand)
chain 1: GIVDECCHASCDLRRLEMYCN-OH
chain 2: GPEHLCGADLVDALYLVCGDRGFY-NH2
modifications: disulfide (positions not given here); not fully specified (bridges)
Q: With B5 as the binder, how does the “% IGF, total phosphorylation” value [1] read?
A: 181%

B6: IGF-1 A:B(D10Y16L17) DPI A-COOH (ligand)
chain 1: GIVDECCFRSCDLRRLEMYCA-OH
chain 2: GPETLCGADLVDALYLVCGDRGFY-NH2
modifications: disulfide (positions not given here); not fully specified (bridges)
Q: B6 was tested. Which “% IGF, total phosphorylation” value [1] did it give?
A: 112%

Q: What about the “% Insulin, total phosphorylation, Insulin Receptor” value [2] of the same binder?
A: 1580%

Q: And the “% native insulin activity (0.6 nM)” value [7]?
A: 231%

Q: And the “% native insulin activity (0.6 nM)” value [8]?
A: 300%

Q: And the “% native insulin activity (0.6 nM)” value [9]?
A: 144%

B7: IGF-1 A:In (1-17)-IGF-1 B (18-30) (ligand)
chain 1: GIVDECCFRSCDLRRLEMYCA-NH2
chain 2: FVNQHLCGSHLVEALYLVCGDRGFYFNKPT-NH2
modifications: disulfide (positions not given here); not fully specified (bridges)
notes: The B chain is a chimera; The conversion is mine
Q: Which “% insulin (in test)” value [3] does the source give for B7 here?
A: 14%

Q: And the “% native insulin activity (0.6 nM)” value [3]?
A: 21.7%

Q: What about the “% native insulin activity (0.6 nM)” value [10] of the same binder?
A: 22.5%

Q: What about the “% native insulin activity (0.6 nM)” value [6] of the same binder?
A: 24.2%
